Experimental data from patent publication US11278600B2, “Human alpha-galactosidase variants” (Codexis, Inc., priority 2014, dated 2022).
Substitutions are numbered along the chain they refer to.

Tests used:
Format in all cases: biochemical
[1] = HTP-analysis of yeast culture supernatants, no challenge (MUGal hydrolysis); details: activity of the variant/activity of Rd2BB (SEQ ID NO: 10), yeast supernatant
Summary of the method: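 GLA variants expressed in yeast INVSc1, secreted into SD-Ura broth over 66-84 h at 30° C; clarified supernatants tested without challenge. Supernatant mixed with McIlvaine buffer pH 4.8 and 2 mM MUGal (citrate/KCl, pH 4.6), 37° C for 30-180 min, carbonate-quenched, fluorescence Ex 355/Em 448 nm.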

[2] = HTP-analysis of supernatants pretreated with acid (MUGal hydrolysis); details: challenge at pH 4.2; activity of the variant/activity of Rd2BB (SEQ ID NO: 10); yeast supernatant
Summary of the method: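 Yeast INVSc1 supernatant, GLA variants; acid challenge: McIlvaine pH 3.3-4.3, 37° C., 1-3 h. Assay: MUGal in McIlvaine pH 4.8 plus citrate pH 4.3, 37° C., 30-180 min, Na2CO3 stop, Ex 355/Em 448 nm.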

[3] = HTP-analysis of supernatants pretreated with base (MUGal hydrolysis); details: challenge at pH 7.6; activity of the variant/activity of Rd2BB (SEQ ID NO: 10); yeast supernatant
Summary of the method: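 Supernatants from INVSc1 yeast expressing GLA variants (SD-Ura, 66-84 h, 30° C) were mixed with McIlvaine buffer pH 7.0-8.2 or 200 mM sodium bicarbonate pH 9.1-9.7 and held 1-18 h at 37° C. Residual activity was then measured on MUGal at pH 4.8/4.3, 37° C, 30-180 min, by fluorescence (Ex 355/Em 448 nm).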

B1: 209 (protein)
chain: LDNGLARTPTMGWLHWERFMCNLDCQEEPDSCISEKLFMEMAELMVSEGWKDAGYEYLCIDDCWMAPQRDSEGRLQADPQRFPHGIRQLANYVHSKGLKLGIYADVGNKTCAGFPGSFGYYDIDAQTFADWGVDLLKFDGCYCDSLENLADGYKHMSLALNRTGRSIVYSCEWPLYMWPFQKPNYTEIRQYCNHWRNFADIDDSWASIKSILDWTSFNQERIVDVAGPGGWNDPDMLVIGNFGLSWNQQVTQMALWAIMAAPLFMSNDLRHISPQAKALLQDKDVIAINQDPLGKQGYQLRQGDNFEVWERPLSGLAWAVAMINRQEIGGPRSYTIAVASLGKGVACNPACFITQLLPVKRKLGFYPWDSRLRSHINPTGTVLLQLENTMQMSKDLLL
modifications: Synthetic Polypeptide sequence of Variant No. 209 of mature Human GLA
Relative Activity of GLA Variants After No Challenge (NC) [1]: + (+ = 0.5 to 1.5 relative activity over Rd2BB (SEQ ID NO: 10)) | Relative Activity of GLA Variants After Challenge at pH 4.2 [2]: + (+ = 0.5 to 1.5 relative activity over Rd2BB (SEQ ID NO: 10)) | Relative Activity of GLA Variants After Challenge at pH 7.6 [3]: + (+ = 0.5 to 1.5 relative activity over Rd2BB (SEQ ID NO: 10))

B2: 214 (protein)
chain: B1 chain with K343D, F365L, P367N, D369T
modifications: Synthetic Polypeptide sequence of Variant No. 214 of mature Human GLA
Relative Activity of GLA Variants After No Challenge (NC) [1]: +++ (+++ = >2.5 relative activity over Rd2BB (SEQ ID NO: 10)) | Relative Activity of GLA Variants After Challenge at pH 4.2 [2]: +++ (+++ = >2.5 relative activity over Rd2BB (SEQ ID NO: 10)) | Relative Activity of GLA Variants After Challenge at pH 7.6 [3]: +++ (+++ = >2.5 relative activity over Rd2BB (SEQ ID NO: 10))

B3: 224 (protein)
chain: B1 chain with Q302K, M322V, P367N, D369T
modifications: Synthetic Polypeptide sequence of Variant No. 224 of mature Human GLA
Relative Activity of GLA Variants After No Challenge (NC) [1]: ++ (++ = 1.5 to 2.5 relative activity over Rd2BB (SEQ ID NO: 10)) | Relative Activity of GLA Variants After Challenge at pH 4.2 [2]: +++ (+++ = >2.5 relative activity over Rd2BB (SEQ ID NO: 10)) | Relative Activity of GLA Variants After Challenge at pH 7.6 [3]: +++ (+++ = >2.5 relative activity over Rd2BB (SEQ ID NO: 10))

B4: 221 (protein)
chain: B1 chain with P367E, D369T, M390I
modifications: Synthetic Polypeptide sequence of Variant No. 221 of mature Human GLA
Relative Activity of GLA Variants After No Challenge (NC) [1]: + (+ = 0.5 to 1.5 relative activity over Rd2BB (SEQ ID NO: 10)) | Relative Activity of GLA Variants After Challenge at pH 4.2 [2]: + (+ = 0.5 to 1.5 relative activity over Rd2BB (SEQ ID NO: 10)) | Relative Activity of GLA Variants After Challenge at pH 7.6 [3]: + (+ = 0.5 to 1.5 relative activity over Rd2BB (SEQ ID NO: 10))

B5: 219 (protein)
chain: B1 chain with M322I, P367E, D369T, R373K
modifications: Synthetic Polypeptide sequence of Variant No. 219 of mature Human GLA
Relative Activity of GLA Variants After No Challenge (NC) [1]: + (+ = 0.5 to 1.5 relative activity over Rd2BB (SEQ ID NO: 10)) | Relative Activity of GLA Variants After Challenge at pH 4.2 [2]: + (+ = 0.5 to 1.5 relative activity over Rd2BB (SEQ ID NO: 10)) | Relative Activity of GLA Variants After Challenge at pH 7.6 [3]: + (+ = 0.5 to 1.5 relative activity over Rd2BB (SEQ ID NO: 10))

B6: 213 (protein)
chain: B1 chain with H15Q, P367E, D369T
modifications: Synthetic Polypeptide sequence of Variant No. 213 of mature Human GLA
Relative Activity of GLA Variants After No Challenge (NC) [1]: + (+ = 0.5 to 1.5 relative activity over Rd2BB (SEQ ID NO: 10)) | Relative Activity of GLA Variants After Challenge at pH 4.2 [2]: − (− = <0.5 relative activity over Rd2BB (SEQ ID NO: 10)) | Relative Activity of GLA Variants After Challenge at pH 7.6 [3]: − (− = <0.5 relative activity over Rd2BB (SEQ ID NO: 10))

B7: 215 (protein)
chain: B1 chain with K343G, P367E, D369T
modifications: Synthetic Polypeptide sequence of Variant No. 215 of mature Human GLA
Relative Activity of GLA Variants After No Challenge (NC) [1]: + (+ = 0.5 to 1.5 relative activity over Rd2BB (SEQ ID NO: 10)) | Relative Activity of GLA Variants After Challenge at pH 4.2 [2]: + (+ = 0.5 to 1.5 relative activity over Rd2BB (SEQ ID NO: 10)) | Relative Activity of GLA Variants After Challenge at pH 7.6 [3]: + (+ = 0.5 to 1.5 relative activity over Rd2BB (SEQ ID NO: 10))

B8: 218 (protein)
chain: B1 chain with M322I, P367N, D369T, R373K, K394L, D395K, L396D
modifications: Synthetic Polypeptide sequence of Variant No. 218
Relative Activity of GLA Variants After No Challenge (NC) [1]: +++ (+++ = >2.5 relative activity over Rd2BB (SEQ ID NO: 10)) | Relative Activity of GLA Variants After Challenge at pH 4.2 [2]: +++ (+++ = >2.5 relative activity over Rd2BB (SEQ ID NO: 10)) | Relative Activity of GLA Variants After Challenge at pH 7.6 [3]: +++ (+++ = >2.5 relative activity over Rd2BB (SEQ ID NO: 10))

B9: 212 (protein)
chain: B1 chain with F365L, P367N, D369T, R373K, I376V
modifications: Synthetic Polypeptide sequence of Variant No. 212 of mature Human GLA
Relative Activity of GLA Variants After No Challenge (NC) [1]: ++ (++ = 1.5 to 2.5 relative activity over Rd2BB (SEQ ID NO: 10)) | Relative Activity of GLA Variants After Challenge at pH 4.2 [2]: ++ (++ = 1.5 to 2.5 relative activity over Rd2BB (SEQ ID NO: 10)) | Relative Activity of GLA Variants After Challenge at pH 7.6 [3]: ++ (++ = 1.5 to 2.5 relative activity over Rd2BB (SEQ ID NO: 10))

B10: 220 (protein)
chain: B1 chain with M322V, P367E, D369T, R373K, I376V
modifications: Synthetic Polypeptide sequence of Variant No. 220 of mature Human GLA
Relative Activity of GLA Variants After No Challenge (NC) [1]: + (+ = 0.5 to 1.5 relative activity over Rd2BB (SEQ ID NO: 10)) | Relative Activity of GLA Variants After Challenge at pH 4.2 [2]: + (+ = 0.5 to 1.5 relative activity over Rd2BB (SEQ ID NO: 10)) | Relative Activity of GLA Variants After Challenge at pH 7.6 [3]: ++ (++ = 1.5 to 2.5 relative activity over Rd2BB (SEQ ID NO: 10))

B11: 225 (protein)
chain: B1 chain with R165S, P367E, D369T, T389S
modifications: Synthetic Polypeptide sequence of Variant No. 182 of mature Human GLA
Relative Activity of GLA Variants After No Challenge (NC) [1]: + (+ = 0.5 to 1.5 relative activity over Rd2BB (SEQ ID NO: 10)) | Relative Activity of GLA Variants After Challenge at pH 4.2 [2]: + (+ = 0.5 to 1.5 relative activity over Rd2BB (SEQ ID NO: 10)) | Relative Activity of GLA Variants After Challenge at pH 7.6 [3]: + (+ = 0.5 to 1.5 relative activity over Rd2BB (SEQ ID NO: 10))

B12: 211 (protein)
chain: B1 chain with F365L, P367N, D369T, I376V
modifications: Synthetic Polypeptide sequence of Variant No. 211 of mature Human GLA
Relative Activity of GLA Variants After No Challenge (NC) [1]: ++ (++ = 1.5 to 2.5 relative activity over Rd2BB (SEQ ID NO: 10)) | Relative Activity of GLA Variants After Challenge at pH 4.2 [2]: ++ (++ = 1.5 to 2.5 relative activity over Rd2BB (SEQ ID NO: 10)) | Relative Activity of GLA Variants After Challenge at pH 7.6 [3]: ++ (++ = 1.5 to 2.5 relative activity over Rd2BB (SEQ ID NO: 10))

B13: 222 (protein)
chain: B1 chain with P228Q, P367E
modifications: Synthetic Polypeptide sequence of Variant No. 222 of mature Human GLA
Relative Activity of GLA Variants After No Challenge (NC) [1]: ++ (++ = 1.5 to 2.5 relative activity over Rd2BB (SEQ ID NO: 10)) | Relative Activity of GLA Variants After Challenge at pH 4.2 [2]: ++ (++ = 1.5 to 2.5 relative activity over Rd2BB (SEQ ID NO: 10)) | Relative Activity of GLA Variants After Challenge at pH 7.6 [3]: + (+ = 0.5 to 1.5 relative activity over Rd2BB (SEQ ID NO: 10))

B14: 216 (protein)
chain: B1 chain with K343G, F365L, P367N, D369T, R373K
modifications: Synthetic Polypeptide sequence of Variant No. 216 of mature Human GLA
Relative Activity of GLA Variants After No Challenge (NC) [1]: ++ (++ = 1.5 to 2.5 relative activity over Rd2BB (SEQ ID NO: 10)) | Relative Activity of GLA Variants After Challenge at pH 4.2 [2]: +++ (+++ = >2.5 relative activity over Rd2BB (SEQ ID NO: 10)) | Relative Activity of GLA Variants After Challenge at pH 7.6 [3]: +++ (+++ = >2.5 relative activity over Rd2BB (SEQ ID NO: 10))

B15: 210 (protein)
chain: B1 chain with F365L, P367N, D369T
modifications: Synthetic Polypeptide sequence of Variant No. 210 of mature Human GLA
Relative Activity of GLA Variants After No Challenge (NC) [1]: ++ (++ = 1.5 to 2.5 relative activity over Rd2BB (SEQ ID NO: 10)) | Relative Activity of GLA Variants After Challenge at pH 4.2 [2]: ++ (++ = 1.5 to 2.5 relative activity over Rd2BB (SEQ ID NO: 10)) | Relative Activity of GLA Variants After Challenge at pH 7.6 [3]: ++ (++ = 1.5 to 2.5 relative activity over Rd2BB (SEQ ID NO: 10))

B16: 223 (protein)
chain: B1 chain with Q302K, A337P, A350G, K362Q, P367E, D369T
modifications: Synthetic Polypeptide sequence of Variant No. 223 of mature Human GLA
Relative Activity of GLA Variants After No Challenge (NC) [1]: + (+ = 0.5 to 1.5 relative activity over Rd2BB (SEQ ID NO: 10)) | Relative Activity of GLA Variants After Challenge at pH 4.2 [2]: ++ (++ = 1.5 to 2.5 relative activity over Rd2BB (SEQ ID NO: 10)) | Relative Activity of GLA Variants After Challenge at pH 7.6 [3]: ++ (++ = 1.5 to 2.5 relative activity over Rd2BB (SEQ ID NO: 10))
